The results in this text go back to the Immune Epitope Database (IEDB).

pIC50: −log10 of the molar value. Some results are limits rather than exact numbers.

For one test, the target named is HLA-A*02:01. The experiment in a line: IEDB peptide-MHC binding, purified MHC/competitive/radioactivity; ≥ and ≤ were set here for values at or beyond the usual limits of such assays. The note with it: source organism: Bordetella pertussis.
Turning to GVAPTAQQL, the pIC50 was 4.16.
In the case of VLVKTNMVV, the negative-log IC50 (pIC50) is 4.94.
Regarding YMIYMSGLA, the pIC50 was 6.39.

The next test deals with HLA-B*07:02. The description is as above. The note with it: source organism: Bordetella pertussis.
For the sequence FVRSGQPVI, the pIC50 was 4.76.
Still for that read-out and setting: to GPPSRPTTP belongs 4.16; to GPSAVAAPA, 6.21; to PPKPAPVAK, at most 4.11.

A further test concerns the target HLA-B*35:01. Described as above. The note with it: source organism: Bordetella pertussis.
For ETFCITTIY, the pIC50 was 4.80.
GKDLKRPGS: the negative logarithm of the IC50 (pIC50) was 4.16.
For the sequence QVGSSNSAF, the pIC50 is 4.16.
With VHVSKEEQY, the negative logarithm of the IC50 (pIC50) was 4.16.

Another test addresses HLA-B*44:03. The description is as above. The note with it: source organism: Bordetella pertussis.
Regarding AAVALLNKL, the pIC50 was 6.17.
As for AQITSYVGF, the negative logarithm of the IC50 (pIC50) was 5.67.

Another test addresses HLA-B*53:01. The test is described as above. The note with it: source organism: Bordetella pertussis.
On to ETFCITTIY, for which the negative-log IC50 (pIC50) was 4.51.
On the same count and under the same terms, then MAAESTFES, with 4.62.
MATKGEMQI: the pIC50 is 4.24.

For a further test, the target named is HLA-B*57:01. Described as above. The conditions noted are these: source organism: Bordetella pertussis.
Turning to AVLVNPHIF, the pIC50 was 4.48.
With DDEVDVSGR, the pIC50 is at most 4.15.
Regarding ITVTSRGGF, the negative-log IC50 (pIC50) is 6.11.
For the sequence TTLGLEQTF, the negative logarithm of the IC50 (pIC50) was 5.32.
